Experimental data taken from patent publication US20130109581A1, “POSITIVELY CHARGED SPECIES AS BINDING REAGENTS IN THE SEPARATION OF PROTEIN AGGREGATES FROM MONOMERS” (priority 2009, published 2013).
Values joined by “and” are separate entries in the source; they are usually repeats but may differ in a detail not shown here. Equal values may be shown once. Read-outs that look alike come from different tables or passages of the source.

How the values were obtained:
[1] = target: Abeta 1-40 monomer (UniProt P05067); assay: MPA bead capture, Abeta 1-40 read-out of the CSF sample (noise)
[2] = target: Abeta 1-42 globulomer (UniProt P05067); assay: MPA bead capture, CSF + 1 ng/mL globulomer, Abeta immunoassay
[3] = target: Abeta 1-42 globulomer (UniProt P05067); assay: 42 (globulomer) RLU over 40 (Abeta 1-40 monomer) RLU
[4] = target: Abeta 1-42 globulomer (UniProt P05067); assay: MPA, CSF + 0.5 ng/mL globulomer, ASB-16 wash
[5] = target: Abeta (1-42) aggregates from Alzheimer's Disease Brain Homogenate (human) (UniProt P05067); assay: MPA, serial dilutions of ADBH in CSF, LoD = 2x over background
[6] = target: Abeta 1-42 monomer (UniProt P05067); assay: MPA, unspiked CSF background, Pluronic F-127 wash
[7] = target: Abeta 1-42 globulomer (UniProt P05067); assay: MPA, globulomer Abeta 42 RLU over average Abeta 40 RLU, ZW3-14 wash
[8] = target: ASPD (Abeta42 aggregate) (UniProt P05067); assay: MPA, serial dilutions in CSF, LoD = 2x over background
[9] = target: ADDL (Abeta42 aggregate) (UniProt P05067); assay: as above
[10] = target: Abeta42 fibrils (UniProt P05067); assay: as above
[11] = target: Abeta 1-42 globulomer (UniProt P05067); assay: as above
[12] = target: Abeta (1-42) aggregates from Alzheimer's Disease Brain Homogenate (human) (UniProt P05067); assay: as above
[13] = target: Abeta 1-42 globulomer (UniProt P05067); assay: MPA, pulldown in CSF, no added detergent wash
[14] = target: Abeta 1-42 globulomer (UniProt P05067); assay: MPA, globulomer Abeta 42 RLU over average Abeta 40 RLU, ASB-14 wash
[15] = target: Abeta 1-42 globulomer (UniProt P05067); assay: MPA, globulomer Abeta 42 RLU over average Abeta 40 RLU, ASB-C8phn wash
[16] = target: Abeta 1-42 globulomer (UniProt P05067); assay: MPA, 0.5 over 0 ng/mL globulomer in CSF, Empigen wash
[17] = target: Abeta 1-42 globulomer (UniProt P05067); assay: MPA, CSF + 0.5 ng/mL globulomer, ZW3-14 wash
[18] = target: Abeta 1-42 globulomer (UniProt P05067); assay: MPA, 0.5 over 0 ng/mL globulomer in CSF, ASB-16 wash
[19] = target: Abeta 1-42 monomer (UniProt P05067); assay: MPA, unspiked CSF background, ASB-16 wash
[20] = target: Abeta 1-42 globulomer (UniProt P05067); assay: MPA, PSR1 beads, globulomer spiked into buffer (TBSTT)
[21] = target: Abeta 1-42 monomer (UniProt P05067); assay: MPA, unspiked CSF background, Brij 35 wash
[22] = target: Abeta 1-42 globulomer (UniProt P05067); assay: MPA, CSF + 0.5 ng/mL globulomer, ZW3-08 wash
[23] = target: Abeta 1-42 globulomer (UniProt P05067); assay: MPA, CSF + 0.5 ng/mL globulomer, ZW3-16 wash
[24] = target: Abeta 1-42 globulomer (UniProt P05067); assay: MPA, 0.5 over 0 ng/mL globulomer in CSF, ZW3-12 wash
[25] = target: Abeta 1-42 globulomer (UniProt P05067); assay: MPA, 0.5 over 0 ng/mL globulomer in CSF, Pluronic F-127 wash
[26] = target: Abeta 1-42 globulomer (UniProt P05067); assay: MPA, CSF + 0.5 ng/mL globulomer, ASB-14 wash
[27] = target: Abeta 1-42 globulomer (UniProt P05067)
[28] = target: Abeta 1-42 monomer (UniProt P05067); assay: MPA, unspiked CSF background, ASB-C8phn wash
[29] = target: Abeta 1-42 globulomer (UniProt P05067); assay: MPA, 0.5 over 0 ng/mL globulomer in CSF, ZW3-16 wash
[30] = target: Abeta 1-42 globulomer (UniProt P05067); assay: MPA, CSF + 0.5 ng/mL globulomer, Empigen wash
[31] = target: Abeta 1-42 globulomer (UniProt P05067); assay: MPA, CSF + 0.5 ng/mL globulomer, ZW3-12 wash
[32] = target: Abeta 1-42 globulomer (UniProt P05067); assay: MPA, 0.5 over 0 ng/mL globulomer in CSF, ZW3-08 wash
[33] = target: Abeta 1-42 globulomer (UniProt P05067); assay: MPA, CSF + 0.5 ng/mL globulomer, Brij 35 wash
[34] = target: Abeta 1-42 globulomer (UniProt P05067); assay: MPA, globulomer Abeta 42 RLU over average Abeta 40 RLU, ZW3-08 wash
[35] = target: Abeta 1-42 globulomer (UniProt P05067); assay: MPA, pulldown in TBSTT, no added detergent wash
[36] = target: Abeta 1-42 globulomer (UniProt P05067); assay: MPA, 0.5 over 0 ng/mL globulomer in CSF, ZW3-14 wash
[37] = target: Abeta 1-42 globulomer (UniProt P05067); assay: MPA, globulomer Abeta 42 RLU over average Abeta 40 RLU, Pluronic F-127 wash
[38] = target: Abeta 1-42 globulomer (UniProt P05067); assay: MPA, globulomer Abeta 42 RLU over average Abeta 40 RLU, ZW3-12 wash
[39] = target: Abeta 1-42 globulomer (UniProt P05067); assay: MPA, globulomer Abeta 42 RLU over average Abeta 40 RLU, ZW3-16 wash
[40] = target: Abeta 1-42 monomer (UniProt P05067); assay: MPA, unspiked CSF background, ZW3-12 wash
[41] = target: Abeta 1-42 globulomer (UniProt P05067); assay: MPA, pulldown in CSF, 1% TW20 wash
[42] = target: Abeta 1-42 globulomer (UniProt P05067); assay: MPA, PSR1 beads, globulomer spiked into normal CSF
[43] = target: Abeta 1-42 globulomer (UniProt P05067); assay: MPA, globulomer Abeta 42 RLU over average Abeta 40 RLU, Brij 35 wash
[44] = target: ASPD (Abeta42 aggregate) (UniProt P05067); assay: MPA, serial dilutions in CSF, LoD = 2x over background; remark: listed apart in the source
[45] = target: ADDL (Abeta42 aggregate) (UniProt P05067); assay: as above; remark: listed apart in the source
[46] = target: Abeta 1-42 monomer (UniProt P05067); assay: as above
[47] = target: Abeta42 fibrils (UniProt P05067); assay: as above; remark: listed apart in the source
[48] = target: Abeta 1-42 globulomer (UniProt P05067); assay: as above; remark: listed apart in the source
[49] = target: Abeta 1-42 globulomer (UniProt P05067); assay: MPA, globulomer Abeta 42 RLU over average Abeta 40 RLU, ASB-16 wash
[50] = target: Abeta 1-42 monomer (UniProt P05067); assay: MPA, unspiked CSF background, ASB-14 wash
[51] = target: Abeta 1-42 globulomer (UniProt P05067); assay: MPA, CSF + 0.5 ng/mL globulomer, Pluronic F-127 wash
[52] = target: Abeta 1-42 globulomer (UniProt P05067); assay: MPA, 0.5 over 0 ng/mL globulomer in CSF, ASB-14 wash
[53] = target: Abeta 1-42 globulomer (UniProt P05067); assay: MPA, 0.5 over 0 ng/mL globulomer in CSF, ASB-C8phn wash
[54] = target: Abeta 1-42 monomer (UniProt P05067); assay: MPA, unspiked CSF background, ZW3-16 wash
[55] = target: Abeta 1-42 globulomer (UniProt P05067); assay: MPA, CSF + 0.5 ng/mL globulomer, ASB-C8phn wash
[56] = target: Abeta 1-42 monomer (UniProt P05067); assay: MPA, unspiked CSF background, Empigen wash
[57] = target: Abeta 1-42 globulomer (UniProt P05067); assay: MPA, 0.5 over 0 ng/mL globulomer in CSF, Brij 35 wash
[58] = target: Abeta 1-42 monomer (UniProt P05067); assay: MPA, unspiked CSF background, ZW3-14 wash
[59] = target: Abeta 1-42 globulomer (UniProt P05067); assay: MPA, globulomer Abeta 42 RLU over average Abeta 40 RLU, Empigen wash
[60] = target: PrPSc, prion aggregates of prion infected hamster (Syrian hamster) (UniProt P04273); assay: cell-based or functional assay
[61] = target: Abeta 1-42 monomer (UniProt P05067); assay: MPA, unspiked CSF background, ZW3-08 wash

Sequence of PrPSc, prion aggregates of prion infected hamster (Syrian hamster) (P04273 23-231 limits assumed): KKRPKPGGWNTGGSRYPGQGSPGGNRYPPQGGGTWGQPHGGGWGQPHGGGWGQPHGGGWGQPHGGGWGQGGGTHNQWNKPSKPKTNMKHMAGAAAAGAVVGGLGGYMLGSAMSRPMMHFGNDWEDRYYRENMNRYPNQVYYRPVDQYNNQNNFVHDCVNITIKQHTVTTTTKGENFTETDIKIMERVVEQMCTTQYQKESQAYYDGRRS

With AKKKKK (peptide) as the substance, how does the average RLU (40) [1] read?
Its average RLU (40) is 176 RLU.

How did the average RLU (40) [1] turn out when link-kkkfkf (peptide) was run?
The average RLU (40) was 254 RLU.

What about the average RLU (42) [2] of the same substance?
The average RLU (42) was 1600 RLU.

And the 42:40 ratio [3]?
The 42:40 ratio was 6.3.

What does the source list for “PSR1 (peptoid, directly conjugated to Dynal M270 beads)”?
Abeta 42 RLU, 0.5 ng/mL Average [4]: 789 RLU; LoD (amol) [5]: < 0.2 amol; Abeta 42 RLU, 0 ng/mL Average [6]: 117 RLU; S/N Abeta 42 globulomer-spiked/Abeta 40 [7]: 2.2; LoD [8]: 200 pg/mL; LoD [9]: 200 pg/mL; LoD [10]: 50 pg/mL; LoD [11]: 75 pg/mL; LoD [12]: < 5 pg/mL; LoD of globulomer, RLU (S/N = 2) [13]: 456 RLU; LoD of globulomer, pg/mL (Cal) [13]: 6.16 pg/mL; S/N at 25.3 pg/mL [13]: 5.7; S/N Abeta 42 globulomer-spiked/Abeta 40 [14]: 2; S/N Abeta 42 globulomer-spiked/Abeta 40 [15]: 1.4; S/N Abeta 42 globulomer-spiked/unspiked [16]: 8.7; Abeta 42 RLU, 0.5 ng/mL Average [17]: 842 RLU; S/N Abeta 42 globulomer-spiked/unspiked [18]: 8.2; Abeta 42 RLU, 0 ng/mL Average [19]: 95.7 RLU; limit of detection (LoD) [20]: 5 pM; average RLU (40) [1]: 234 RLU; Abeta 42 RLU, 0 ng/mL Average [21]: 117 RLU; Abeta 42 RLU, 0.5 ng/mL Average [22]: 669 RLU; Abeta 42 RLU, 0.5 ng/mL Average [23]: 731 RLU; S/N Abeta 42 globulomer-spiked/unspiked [24]: 7.1; S/N Abeta 42 globulomer-spiked/unspiked [25]: 6.3; Abeta 42 RLU, 0.5 ng/mL Average [26]: 779 RLU; LoD of globulomer, RLU (S/N = 2) [27]: 199 RLU; LoD of globulomer, pg/mL (Cal) [27]: 2.33 pg/mL; S/N at 25.3 pg/mL [27]: 10.3; Abeta 42 RLU, 0 ng/mL Average [28]: 101 RLU; S/N Abeta 42 globulomer-spiked/unspiked [29]: 10.9; Abeta 42 RLU, 0.5 ng/mL Average [30]: 670 RLU; Abeta 42 RLU, 0.5 ng/mL Average [31]: 642 RLU; S/N Abeta 42 globulomer-spiked/unspiked [32]: 6.8; Abeta 42 RLU, 0.5 ng/mL Average [33]: 741 RLU; S/N Abeta 42 globulomer-spiked/Abeta 40 [34]: 0.9; LoD of globulomer, RLU (S/N = 2) [35]: 204 RLU; LoD of globulomer, pg/mL (Cal) [35]: 2.34 pg/mL; S/N at 25.3 pg/mL [35]: 13.7; S/N Abeta 42 globulomer-spiked/unspiked [36]: 7.7; S/N Abeta 42 globulomer-spiked/Abeta 40 [37]: 0.9; S/N Abeta 42 globulomer-spiked/Abeta 40 [38]: 1.4; S/N Abeta 42 globulomer-spiked/Abeta 40 [39]: 3.7; Abeta 42 RLU, 0 ng/mL Average [40]: 90.7 RLU; LoD of globulomer, RLU (S/N = 2) [41]: 211 RLU; LoD of globulomer, pg/mL (Cal) [41]: 2.52 pg/mL; S/N at 25.3 pg/mL [41]: 11; limit of detection (LoD) [42]: 10 pM; S/N Abeta 42 globulomer-spiked/Abeta 40 [43]: 1; LoD [44]: 200 pg/mL; LoD (amol) [44]: 20 amol; LoD [45]: 200 pg/mL; LoD (amol) [45]: 20 amol; LoD [46]: 1000 pg/mL; LoD (amol) [46]: 22000 amol; LoD [47]: 50 pg/mL; LoD (amol) [47]: < 2 amol; LoD [48]: 75 pg/mL; LoD (amol) [48]: 140 amol; average RLU (42) [2]: 970 RLU; S/N Abeta 42 globulomer-spiked/Abeta 40 [49]: 2.8; Abeta 42 RLU, 0 ng/mL Average [50]: 89.7 RLU; Abeta 42 RLU, 0.5 ng/mL Average [51]: 739 RLU; S/N Abeta 42 globulomer-spiked/unspiked [52]: 8.7; S/N Abeta 42 globulomer-spiked/unspiked [53]: 9.3; Abeta 42 RLU, 0 ng/mL Average [54]: 67 RLU; Abeta 42 RLU, 0.5 ng/mL Average [55]: 936 RLU; Abeta 42 RLU, 0 ng/mL Average [56]: 76.7 RLU; S/N Abeta 42 globulomer-spiked/unspiked [57]: 6.3; Abeta 42 RLU, 0 ng/mL Average [58]: 110 RLU; S/N Abeta 42 globulomer-spiked/Abeta 40 [59]: 2.6; Attack rate (Clinical TSE/total inoculated), Pool 2 [60]: 100%; Attack rate (Clinical TSE/total inoculated), Pool 3 (pre-symptomatic) [60]: 50%; Attack rate (Clinical TSE/total inoculated), Pool 4 [60]: 100%; Mean incubation period (days), Pool 1 [60]: 94 dpi; Mean incubation period (days), Pool 2 [60]: 74 dpi; Mean incubation period (days), Pool 4 [60]: 76 dpi; incubation period (days), Pool 3 (pre-symptomatic) [60]: 56 days and 85 days; Abeta 42 RLU, 0 ng/mL Average [61]: 97.7 RLU; 42:40 ratio [3]: 4.1

How did the average RLU (40) [1] turn out when AAKKKA (peptide) was run?
The average RLU (40) was 159 RLU.
